Columns and labels:
[1] = biological target: T1, HMHA1, wild type (HA-1R; HA-1H-negative, rs1801284 G/G) peptide on HLA-A*02:01 (human); experiment: killing
T1 peptide: VLRDDLLEA

[2] = biological target: T2, HMHA1 (Rho GTPase-activating protein 45), minor histocompatibility antigen HA-1H, R139H polymorphism peptide … (human); experiment: multimer staining
T2 peptide: VLHDDLLEA

| Binder | binding result [1] | binding result [2] |
| --- | --- | --- |
| TCR5 (TCR, V domains shown) Valpha: SQQGEEDPQALSIQEGENATMNCSYKTSINNLQWYRQNSGRGLVHLILIRSNEREKHSGRLRVTLDTSKKSSSLLITASRAADTASYFCATNSGNTPLVFGKGTRLSVIA Vbeta: DTGVSQDPRHKITKRGQNVTFRCDPISEHNRLYWYRQTLGQGPEFLTYFQNEAQLEKSRLLSDRFSAERPKGSFSTLEIQRTEQGDSAMYLCASSLTTLDEQYVGPGTRLTVT | no recognition | recognises |
| TCR10 (TCR, V domains shown) Valpha: KNQVEQSPQSLIILEGKNCTLQCNYTVSPFSNLRWYKQDTGRGPVSLTIMTFSENTKSNGRYTATLDADTKQSSLHITASQLSDSASYICVVDSGGGADGLTFGKGTHLIIQP Vbeta: DTGVSQDPRHKITKRGQNVTFRCDPISEHNRLYWYRQTLGQGPEFLTYFQNEAQLEKSRLLSDRFSAERPKGSFSTLEIQRTEQGDSAMYLCASSMLTNYEQYFGPGTRLTVT | no recognition | recognises |
| TCR1 (TCR, V domains shown) Valpha: SQQGEEDPQALSIQEGENATMNCSYKTSINNLQWYRQNSGRGLVHLILIRSNEREKHSGRLRVTLDTSKKSSSLLITASRAADTASYFCATKRDSGAGSYQLTFGKGTKLSVIP Vbeta: DTGVSQDPRHKITKRGQNVTFRCDPISEHNRLYWYRQTLGQGPEFLTYFQNEAQLEKSRLLSDRFSAERPKGSFSTLEIQRTEQGDSAMYLCASSSTGGHNEQFFGPGTRLTVL | no recognition | recognises |
| TCR2 (TCR, V domains shown) Valpha: KQEVTQIPAALSVPEGENLVLNCSFTDSAIYNLQWFRQDPGKGLTSLLLIQSSQREQTSGRLNASLDKSSGRSTLYIAASQPGDSATYLCAVIGLGGTYKYIFGTGTRLKVLA Vbeta: DTGVSQDPRHKITKRGQNVTFRCDPISEHNRLYWYRQTLGQGPEFLTYFQNEAQLEKSRLLSDRFSAERPKGSFSTLEIQRTEQGDSAMYLCASSLVKGEKLFFGSGTQLSVL | no recognition | recognises |
| TCR16 (TCR, V domains shown) Valpha: KQEVTQIPAALSVPEGENLVLNCSFTDSAIYNLQWFRQDPGKGLTSLLLIQSSQREQTSGRLNASLDKSSGRSTLYIAASQPGDSATYLCAVHLLNDYKLSFGAGTTVTVRA Vbeta: DTGVSQDPRHKITKRGQNVTFRCDPISEHNRLYWYRQTLGQGPEFLTYFQNEAQLEKSRLLSDRFSAERPKGSFSTLEIQRTEQGDSAMYLCASSLVVGNEQFFGPGTRLTVL | no recognition | recognises |
